Experimental data from patent US10239925B2, “Peptides and combination of peptides for use in immunotherapy against ovarian cancer and other cancers” (IMMATICS BIOTECHNOLOGIES GMBH, priority 2015, dated 2019).

Target: HLA-A*02:01 (Homo sapiens, UniProt P04439, D140Y/D185E/D98H/E176V/E277Q/G131W/G231S/I119V/I121R/I166T/I218V/L300P/L318F/N151K/N90K/P208A/P217A/Q86G/Q94H/R138H/R169H/T345S)
Assay: MHC binding assay (UV-ligand exchange, anti-β2m ELISA, peptide exchange yield)
Conditions: binding to HLA-A*02:01
From the text: Candidate peptides for T cell based therapies according to the present invention were further tested for their MHC binding capacity (affinity). The individual peptide-MHC complexes were produced by UV-ligand exchange, where a UV-sensitive peptide is cleaved upon UV-irradiation, and exchanged with the peptide of interest as analyzed. Only peptide candidates that can effectively bind and stabilize the peptide-receptive MHC molecules prevent dissociation of the MHC complexes. To determine the yield of the exchange reaction, an ELISA was performed based on the detection of the light chain (β2m) of stabilized MHC complexes. The assay was performed as generally described in Rodenko et al. (Rodenko et al., 2006).
96 well MAXISorp plates (NUNC) were coated over night with 2 ug/ml streptavidin in PBS at room temperature, washed 4× and blocked for 1h at 37° C. in 2% BSA containing blocking buffer. […] Peptide-MHC monomers of the UV-exchange reaction were diluted 100 fold in blocking buffer. Samples were incubated for 1 h at 37° C., washed four times, incubated with 2 ug/ml HRP conjugated anti-β2m for 1h at 37° C., washed again and detected with TMB solution that is stopped with […]. Absorption was measured at 450 nm. Candidate peptides that show a high exchange yield (preferably higher than 50%, most preferred higher than 75%) are generally preferred for a generation and production of antibodies or fragments thereof, and/or T cell receptors or fragments thereof, as they show sufficient avidity to the MHC molecules and prevent dissociation of the MHC complexes.

Row | Substance | Peptide exchange (MHC class I binding score, peptide exchange yield)
1 | 599 (YLLNDASLISV; listed as Homo sapiens) [compound 599] | “+++” (>50 = +++)
2 | 6 (VLVSDGVHSV; listed as Homo sapiens) [compound 6] | “+++” (>50 = +++)
3 | 83 (ILAPTVMMI; listed as Homo sapiens) [compound 83] | “+++” (>50 = +++)
4 | 604 (SILDRDDIFV; listed as Homo sapiens) [compound 604] | “+++” (>50 = +++)
5 | 282 (LLADVVPTT; listed as Homo sapiens) [compound 282] | “+++” (>50 = +++)
6 | 587 (VMNDRLYAI; listed as Homo sapiens) [compound 587] | “+++” (>50 = +++)
7 | 621 (VLMDRLPSLL; listed as Homo sapiens) [compound 621] | “++++” (>75% = ++++)
8 | 505 (SLAPGDVVRQV; listed as Homo sapiens) [compound 505] | “++” (>20% = ++)
9 | 440 (ALADGVTMQV; listed as Homo sapiens) [compound 440] | “++” (>20% = ++)
10 | 388 (SLTIDGIRYV; listed as Homo sapiens) [compound 388] | “+++” (>50 = +++)
11 | 133 (KVLSNIHTV; listed as Homo sapiens) [compound 133] | “++” (>20% = ++)
12 | 559 (VTVPPGPSL; listed as Homo sapiens) [compound 559] | “++” (>20% = ++)
13 | 142 (FLFATPVFI; listed as Homo sapiens) [compound 142] | “+++” (>50 = +++)
14 | 68 (SLMELPRGLFL; listed as Homo sapiens) [compound 68] | “++++” (>75% = ++++)
15 | 172 (VLYSYTIITV; listed as Homo sapiens) [compound 172] | “++” (>20% = ++)
16 | 531 (YTLPIASSIRL; listed as Homo sapiens) [compound 531] | “+++” (>50 = +++)
17 | 151 (KILQQLVTL; listed as Homo sapiens) [compound 151] | “+++” (>50 = +++)
18 | 513 (SLWPSPEQL; listed as Homo sapiens) [compound 513] | “++” (>20% = ++)
19 | 396 (ALLPDLPAL; listed as Homo sapiens) [compound 396] | “+++” (>50 = +++)
20 | 31 (YLAPELFVNV; listed as Homo sapiens) [compound 31] | “++” (>20% = ++)
21 | 438 (KLLPLAGLYL; listed as Homo sapiens) [compound 438] | “++++” (>75% = ++++)

Row | Substance | Peptide exchange (MHC class I binding score, peptide exchange yield)
22 | 575 (YLISQVEGHQV; listed as Homo sapiens) [compound 575] | “+++” (>50 = +++)
23 | 391 (YVYPQRLNFV; listed as Homo sapiens) [compound 391] | “+++” (>50 = +++)
24 | 359 (YLLPESVDL; listed as Homo sapiens) [compound 359] | “+++” (>50 = +++)
25 | 256 (FLPPEHTIVYI; listed as Homo sapiens) [compound 256] | “+++” (>50 = +++)
26 | 233 (VLSETLYEL; listed as Homo sapiens) [compound 233] | “++” (>20% = ++)
27 | 261 (YVLEFLEEI; listed as Homo sapiens) [compound 261] | “++” (>20% = ++)
28 | 522 (TLWYRSPEV; listed as Homo sapiens) [compound 522] | “++” (>20% = ++)
29 | 366 (RLLDMGETDLML; listed as Homo sapiens) [compound 366] | “+++” (>50 = +++)
30 | 78 (SLFSSLEPQIQPV; listed as Homo sapiens) [compound 78] | “+++” (>50 = +++)
31 | 430 (HLYSSIEHLTT; listed as Homo sapiens) [compound 430] | “+++” (>50 = +++)
32 | 308 (SQYSGQLHEV; listed as Homo sapiens) [compound 308] | “+++” (>50 = +++)
33 | 477 (ALLPASGQIAL; listed as Homo sapiens) [compound 477] | “+++” (>50 = +++)
34 | 297 (VLADIELAQA; listed as Homo sapiens) [compound 297] | “+++” (>50 = +++)
35 | 580 (LLMENAERV; listed as Homo sapiens) [compound 580] | “++” (>20% = ++)
36 | 390 (ALFMKQIYL; listed as Homo sapiens) [compound 390] | “+++” (>50 = +++)
37 | 53 (KMIETDILQKV; listed as Homo sapiens) [compound 53] | “++++” (>75% = ++++)
38 | 184 (YLMDINGKMWL; listed as Homo sapiens) [compound 184] | “+++” (>50 = +++)
39 | 237 (ALLEASGTLLL; listed as Homo sapiens) [compound 237] | “++++” (>75% = ++++)
40 | 23 (VLLDDIFAQL; listed as Homo sapiens) [compound 23] | “+++” (>50 = +++)
41 | 136 (YLADPSNLFVV; listed as Homo sapiens) [compound 136] | “+++” (>50 = +++)
42 | 322 (TLMTSLPAL; listed as Homo sapiens) [compound 322] | “+++” (>50 = +++)

Row | Substance | Peptide exchange (MHC class I binding score, peptide exchange yield)
43 | 339 (GLWEIENNPTVKA; listed as Homo sapiens) [compound 339] | “++++” (>75% = ++++)
44 | 287 (FLNEFFLNV; listed as Homo sapiens) [compound 287] | “+++” (>50 = +++)
45 | 110 (FLSQVDFEL; listed as Homo sapiens) [compound 110] | “+++” (>50 = +++)
46 | 170 (RLQETLSAA; listed as Homo sapiens) [compound 170] | “+++” (>50 = +++)
47 | 171 (LLLPLQILL; listed as Homo sapiens) [compound 171] | “+++” (>50 = +++)
48 | 399 (YLFEPLYHV; listed as Homo sapiens) [compound 399] | “+++” (>50 = +++)
49 | 208 (KISPVTFSV; listed as Homo sapiens) [compound 208] | “+++” (>50 = +++)
50 | 591 (SMAELDIKL; listed as Homo sapiens) [compound 591] | “+++” (>50 = +++)
51 | 252 (LLIGTDVSL; listed as Homo sapiens) [compound 252] | “+++” (>50 = +++)
52 | 111 (YVWGFYPAEV; listed as Homo sapiens) [compound 111] | “+++” (>50 = +++)
53 | 491 (GLNDRSDAV; listed as Homo sapiens) [compound 491] | “++” (>20% = ++)
54 | 236 (GLLEAKVSL; listed as Homo sapiens) [compound 236] | “+++” (>50 = +++)
55 | 175 (YLFENISQL; listed as Homo sapiens) [compound 175] | “+++” (>50 = +++)
56 | 550 (FLYDEIEAEVNL; listed as Homo sapiens) [compound 550] | “+++” (>50 = +++)
57 | 177 (YLLPEEYTSTL; listed as Homo sapiens) [compound 177] | “++++” (>75% = ++++)
58 | 469 (YLASDEITTV; listed as Homo sapiens) [compound 469] | “+++” (>50 = +++)
59 | 148 (ALNPEIVSV; listed as Homo sapiens) [compound 148] | “++” (>20% = ++)
60 | 537 (TLAPGEVLRSV; listed as Homo sapiens) [compound 537] | “+++” (>50 = +++)
61 | 145 (FLATSGTLAGI; listed as Homo sapiens) [compound 145] | “++” (>20% = ++)
